Sequences and labels used below:
T1: IsdA (iron-regulated surface determinant protein A), recombinant (Staphylococcus aureus, UniProt P0C1S5 58-316)
T1 construct: also called recombinant IsdA; Isd antigen
T1 chain: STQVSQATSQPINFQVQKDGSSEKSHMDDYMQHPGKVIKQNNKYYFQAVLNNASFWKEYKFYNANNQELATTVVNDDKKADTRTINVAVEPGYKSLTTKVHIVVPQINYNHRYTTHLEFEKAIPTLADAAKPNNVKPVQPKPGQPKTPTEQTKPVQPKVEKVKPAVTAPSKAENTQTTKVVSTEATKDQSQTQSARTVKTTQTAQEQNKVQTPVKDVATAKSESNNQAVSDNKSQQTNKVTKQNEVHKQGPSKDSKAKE

B1: STAU-402 (antibody, V domains shown)
VH: QLQLQESGPGLVKPSETLSLTCTVSGGSISSSSYYWGWIRQPPGKGLEWIGSIYYSGSTYYNPSLKSRVTISVDTSKNQFSLKLSSVTAADTAVYYCARPNSSGWSYYFDYWGQGTLVTVSS
VL: QSVLTQPPSVSGAPGQRVTISCTGTSSNIGADYDVHWYQQLPGTAPKLLIYGNINRPSGVPDRFSGSRSGTSASLAITGLQADDEADYYCQSYDSSLSGSVVFGGGTKLTVL
B2: STAU-401 (antibody, V domains shown)
VH: QVQLVQSGPEARKPGTSVKVSCKTSGYTFSSYGIAWVRQAPGQGLEWMGWISGYSDYTIYAQRLQGRVSMTTDPYTSTAYMELRSLRPDDTAVYYCATLSFGELVENKLDFWGQGTLVTVSS
VL: B1 VL with D34A, N53T
B3: STAU-407 (antibody, V domains shown)
VH: QLQLQESGPGLVKPSETLSLTCSVSGGSISRTYYYWDWIRQPPGKGLEWIGSVYYSGSTYYNPSLKSRVTMSVDTSKNLFSLKLSSVTAADTAVYYCASHESWQQLISWGQGTLVTVSS
VL: QAVLTQPSSLSASPGASASLTCTLRSGINVGIYRIYWYQQKPGSPPQYLLRYKSDSDKHQGSGVPSRFSGSKDASANAGILLISGLQSEDEADYYCMIWHSSAVAFGGGTKLTVL
B4: STAU-201 (antibody, V domains shown)
VH: QVQLVQSGPEVKKPGASVKVSCKASGYTFTNYGLTWVRQAPGKGLEWIGWISPYTGRAKFALKFQGRFTLTTDTSTTTAYMEVRSLKSDDSAVYYCAREGIKDASAFDFWGQGTLVTVSS
VL: QSALTQPASVSGSPGQSITISCTGTGSDIGGYNHVSWYHHYPGKAPKLLIFGVTHRPSGVSDRFSGSKSGVTAFLTISGLQAEDEADYYCSSYTDNTSWVFGGGTKVTVL
B5: STAU-221 (antibody, V domains shown)
VH: QVTLRESGPALVKPTQTLTLTCTFSGFSLTSSGMCVSWIRQPPGKALEWLALIDWDDDKYYITSLKTRLIISKDTSKNQVVLTMTNMDPVDTATYYCARTQSGYSGYYVDYWGQGTLVTVSS
VL: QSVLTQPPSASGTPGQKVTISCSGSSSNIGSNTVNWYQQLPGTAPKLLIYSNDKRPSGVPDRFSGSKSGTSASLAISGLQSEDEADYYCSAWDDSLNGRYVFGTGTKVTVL
B6: STAU-239 (antibody, V domains shown)
VH: QVQLVQSGAEVKKPGSSVKVSCRASGGPFNTYVITWVRQAPGQGLEWMGGIVPVFNTSHSAQKFQGRVKISADTSTNTVYMELTSLTFEDTAVYFCARDGAAAPLNWYDPWGQGTLVTVSS
VL: SYVLTQPPSVSLAPGQTATLTCGGNNIGSKSVHWYQKKPGQAPVLVVYDVRDRPSGIPERFSGSSSENTATLTLSRVEAEDEADYYCQVWESTTSHVIFGGGTKLTVL
B7: STAU-229 (antibody, V domains shown)
VH: EVQLVQSGAEVKKPGATMKISCKVSGYPFTDYYMHWVQQAPGKGLEWMGLIDPEDGETNYAEKFQGRVTITADTSTDTVYMELSSLRSEDTAVYFCAKPHCSSRTCQRVSGYYFGMDVWGQGTLVTVSS
VL: QSALTQPPSASGSPGQSVTISCTGSSNDVGDYNFVSWYQQHPGKPPKLMIYEVTKRPSGVPDRFFGSKSGNTASLTVSGLQADDEADYYCSSYAGGNSVVFGGGTKLTVL
B8: STAU-299 (antibody, V domains shown)
VH: QVTLRESGPALVKPTETVTLTCTFSGFSLSTSGMCVTWLRQPPGKALEWLALIDWEDDKYYSTSLKTRFTISKDTSKNQVVLTMTNMDPVDTATYYCARTPTYRGAFDMWGQGTLVTVSS
VL: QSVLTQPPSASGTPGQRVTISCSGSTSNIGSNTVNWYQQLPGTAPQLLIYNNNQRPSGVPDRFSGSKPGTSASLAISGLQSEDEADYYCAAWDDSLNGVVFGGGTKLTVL
B9: STAU-399 (antibody, V domains shown)
VH: QVQLVQSGAEVKKPGSSLKVSCKVSGGNLRSYGISWVRQAPGQGLEWMGVIIPIFGTPTYAQKFQGRVTLAADDSNNIVFMELSSLRSEDTAVYYCARDWPSITVAVDATNYGMDVWGQGTLVTVSS
VL: QSALTQPRSVSGSPGQSVTISCTGTSNDVGYYDHVSWYQQHPGKAPKFIIYDVSKRPSGVPDRFSGSKSDNTASLTISGLQAEDEADYYCCSFAGSYTYVFGTGTKVTVL
B10: STAU-218 (antibody, V domains shown)
VH: QVTLKESGPVVVKPTETLTLTCTVSDVSLRNVQMGVSWIRQPPGKALEWLAHIFSHDEKAYVTSLENRLTISRDTSNSQVVLTMTNMDPVDTGTYYCARIRSTSGEEEDPFAFWGQGTLVTVSS
VL: DIQMTQSPSSLSASVGDRVTITCRASQSVTTWLAWYQQKPGKAPKLLIYSASSLESGVPSRFSGSGSGTDFTLTISNLQPDDFATYYCQQYRFYWTFGQGTKVESK
B11: STAU-307 (antibody, V domains shown)
VH: QVQLVQSGAEVKKTGSSVKVSCTASGATFNTNDLMWVRQAPGQGLEWMGGIVPVFGRPKYAKKFHGRLIISADEFTTTFYMELTSLTFDDTAIYYCARSGSTESPIQHIDFWGQGTLVTVSS
VL: SYVLTQPPSVSVAPGQTATITCGGDNIATFSVHWYRQKPGQAPVLVVYDDLDRASGIPARFSGSNSGNTATLTISRVEPGDEADYFCQVWEISSDEYVFGPGTSVTVL
B12: STAU-280 (antibody, V domains shown)
VH: EVQLVESGGGLVQTGGSLRLSCAASGFTFSRYNMNWVRQAPGKGLEWVSFISATSSSIYYADSVKGRFTISRDNAKNSLDLQMNSLRDEDTAVYFCVREDAAIFGVGSWFDPWGQGTLVTVSS
VL: EIVMTQSPATLSVSPGERATLSCRASQSVSSNLAWYQQKPGQAPRLLIYGASTRATGIPARFSGSGSGTEFTLTISSLQSEDFAVYFCQEYNDWPLYTFGQGTKLEIK
B13: STAU-281 (antibody, V domains shown)
VH: QVQLVQSGAEVKRPGSSVRVSCKDSGDSFRRYVINWVRQAPGQGLEWMGGIIPIFDKAKSVQKFQDRLTITADESTSTSYMELSSLTSEDTAVYYCARKEDGRRDDVFDIWGQGTLVTVSS
VL: EIVMTQSPATLSVSLGERATLSCRASHSVGSSLAWYQQKPGLAPRLLIYGVSTRATGIPARFSGSGSATEFTLTISSLQSEDLAAYHCQQYDNWPFTFGQGTKLEIK
B14: STAU-389 (antibody, V domains shown)
VH: B9 VH with K13Q, P14S, T57A, L70F, A71V, S75G, I78V, T110I, Y112F, G113A
VL: B9 VL with S26N, Y31S, K55T, K106T
B15: STAU-328 (antibody, V domains shown)
VH: QVQLQQWGAGLLKPSETLSLTCAVYGGSFSGYYWSWIRQPPGKGLEWIGEINHSGSTNYNPSLKSRVTISVDTSKNQFSLKLSSVTAADTAVYYCARDVGDRYYFDYWGQGTLVTVSS
VL: QSALTQPASVSGSPGQSITISCTGTSSDVGSYNLVSWYQQHPGKAPKLMIYEGSKRPSGVSNRFSGSKSGNTASLTISGLQAEDEADYYCCSYAGSSTFVVFGGGTKLTVL
B16: STAU-64 (antibody, V domains shown)
VH: EVQLVESGGGLVKPGGSLRLSCAASGFSFSYYSMNWVRQAPGKGLEWISSISSSGEYIYYADSVKGRFTISRDNAENSLYLQMNSLRAEDTAVYYCAKVVSQQSLDYWGQGTLVTVSS
VL: DIVMTQSPSSLSVSVGDRVTITCRASQSISTYLNWYQQKPGKAPKLLISGGSNLQSGVPSRFSGSGSGTDFTLTIISLQPEDFATYYCQQSYSTRYSFGQGTKLEIK
B17: STAU-139 (antibody, V domains shown)
VH: EVQLVQSGAEVKKPGESLKISCKGSGYSFTSYWIGWVRQMPGKGLEWMGIIYPGDSDTRYSPSFQGQVTISADKSISTAYLQWSSLKASDTAMYYCARPPGLRGDAFDIWGQGTLVTVSS
VL: QSALTQPPSASGSPGQSVTISCTGTSSDVGGYNYVSWYQQHPGKAPKLMIYEVSKRPSGVPDRFSGSKSGNTASLTVSGLQAEDEADYYCSSYAGSNNLVFGGGTKLTVL

Positions count from the first letter of the chain named.

T3 sequence (Q2FG07 41-864): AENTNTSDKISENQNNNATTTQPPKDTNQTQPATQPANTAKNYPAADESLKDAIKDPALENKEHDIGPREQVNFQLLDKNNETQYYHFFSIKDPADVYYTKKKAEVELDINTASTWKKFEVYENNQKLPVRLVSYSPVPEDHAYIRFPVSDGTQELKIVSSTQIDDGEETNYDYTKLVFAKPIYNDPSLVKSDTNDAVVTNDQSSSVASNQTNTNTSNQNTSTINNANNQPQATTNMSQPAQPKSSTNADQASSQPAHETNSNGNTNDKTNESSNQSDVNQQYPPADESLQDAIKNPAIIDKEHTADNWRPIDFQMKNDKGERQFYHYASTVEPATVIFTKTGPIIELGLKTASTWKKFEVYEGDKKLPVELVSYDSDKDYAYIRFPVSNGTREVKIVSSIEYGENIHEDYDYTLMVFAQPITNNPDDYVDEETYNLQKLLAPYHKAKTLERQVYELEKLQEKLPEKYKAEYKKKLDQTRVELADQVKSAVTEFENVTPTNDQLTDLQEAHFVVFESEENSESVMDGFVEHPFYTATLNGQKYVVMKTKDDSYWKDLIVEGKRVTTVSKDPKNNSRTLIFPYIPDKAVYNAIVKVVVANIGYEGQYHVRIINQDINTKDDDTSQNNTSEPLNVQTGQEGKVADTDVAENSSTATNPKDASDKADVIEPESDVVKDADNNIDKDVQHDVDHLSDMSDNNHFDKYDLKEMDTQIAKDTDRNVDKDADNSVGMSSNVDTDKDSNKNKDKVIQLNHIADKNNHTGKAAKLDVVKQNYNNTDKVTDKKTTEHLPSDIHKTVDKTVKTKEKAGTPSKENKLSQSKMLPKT

The first test concerns the target T1, IsdA (iron-regulated surface …). Nature of the test: ELISA on coated recombinant antigen, half-maximal binding. (In general: ELISA stands for enzyme-linked immunosorbent assay.)
By EC50 is commonly meant the concentration at which the effect is half-maximal. For the molecule B1, the EC50 was found to be 8.2 µg/mL.
Take B2: the EC50 came out at 25.1 µg/mL.
In the case of B3, the EC50 came to 1.6 µg/mL.
For the molecule B4, the EC50 stood at 0.26 µg/mL.
Same read-out and setting: with B5 the figure was 0.03 µg/mL; with B6, 0.07 µg/mL; with B7, 0.7 µg/mL.
Consider B8, for which the concentration giving a half-maximal response (EC50) came out at 0.22 µg/mL.
Turning to B9, the EC50 is 8.7 µg/mL.
Take B10: the EC50 turned out to be 0.08 µg/mL.
As for B11, the EC50 amounted to 0.01 µg/mL.
Consider B12, for which the EC50 was 52.1 µg/mL.

In another test the target is T2, IsdB (iron-regulated surface determinant protein B), recombinant (Staphylococcus aureus, UniProt A6QG30 41-609).
T2 construct: also called recombinant IsdB
T2 sequence (A6QG30 41-609 limits assumed): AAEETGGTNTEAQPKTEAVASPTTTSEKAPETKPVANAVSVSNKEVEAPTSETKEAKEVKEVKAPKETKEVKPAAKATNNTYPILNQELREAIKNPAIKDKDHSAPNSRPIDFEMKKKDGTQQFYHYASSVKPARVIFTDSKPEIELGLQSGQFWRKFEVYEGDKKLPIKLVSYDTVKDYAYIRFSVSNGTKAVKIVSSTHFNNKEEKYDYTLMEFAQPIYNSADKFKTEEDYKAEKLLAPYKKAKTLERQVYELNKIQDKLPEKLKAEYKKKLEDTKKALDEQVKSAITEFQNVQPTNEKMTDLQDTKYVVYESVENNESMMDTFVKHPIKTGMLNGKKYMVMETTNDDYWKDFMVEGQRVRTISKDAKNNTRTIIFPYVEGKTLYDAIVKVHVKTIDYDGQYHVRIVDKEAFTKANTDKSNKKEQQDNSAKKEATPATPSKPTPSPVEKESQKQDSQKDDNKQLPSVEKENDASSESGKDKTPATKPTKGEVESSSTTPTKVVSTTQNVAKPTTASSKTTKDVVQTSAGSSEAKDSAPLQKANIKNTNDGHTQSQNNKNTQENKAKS
Described as above.
Turning to B1, the EC50 was 3.4 µg/mL.
In the case of B2, the EC50 was 3.7 µg/mL.
For B13, the EC50 came out at 0.002 µg/mL.
Still for that read-out and setting: then B4, with 9.5 µg/mL; and B5, with 1.9 µg/mL.
In the case of B6, the half-maximal effective concentration (EC50) is 0.001 µg/mL.
For the molecule B7, the EC50 is 0.01 µg/mL.
Turning to B8, the EC50 came to 12.7 µg/mL.
As for B14, the EC50 was found to be 0.13 µg/mL.
Take B9: the EC50 came to 0.53 µg/mL.
Turning to B15, the EC50 worked out at 0.08 µg/mL.
B10: the EC50 turned out to be 4.1 µg/mL.
B11: the EC50 worked out at 0.00028 µg/mL.
Take B16: the EC50 was determined as 0.14 µg/mL.
Take B12: the EC50 was determined as 7.6 µg/mL.

A further test has as its target T3, IsdH (iron-regulated surface determinant protein H), recombinant (Staphylococcus aureus).
T3 construct: also called recombinant IsdH
Described as above.
Turning to B13, the EC50 turned out to be 2.7 ng/mL.
The same measure, in the same setting: then B3, with 3100 ng/mL.
Take B14: the EC50 stood at 340 ng/mL.
As to B9, the EC50 is 950 ng/mL.
Consider B15, for which the EC50 turned out to be 60 ng/mL.
As for B11, the concentration giving a half-maximal response (EC50) is 0.01 ng/mL.
Same read-out and setting: then B17, with 2700 ng/mL.
